The record followed here is patent US11819540B2, “Methods for treating and preventing neutrophil-derived net toxicity and thrombosis” (CHILDREN'S MEDICAL CENTER CORPORATION, priority 2011, dated 2023).

Common to all, as to assay type: in vivo, mouse
For assay [1], the system named is ischemic stroke (tMCAO) in mice. Put plainly: Transient middle cerebral artery occlusion (tMCAO) stroke model. As to the method: Next, the question of whether cerebral ischemia/reperfusion injury effects circulating levels of NETs was addressed. Wild-type C57BL/6 mice were subjected to 2 hours of transient middle cerebral artery occlusion (tMCAO), followed by 22 hours of reperfusion. Focal cerebral ischemia was induced by 60 or 120 min tMCAO. Mice were anesthetized with 2% isoflurane/oxygen mixture. Following a midline skin incision in the neck, the proximal common carotid artery, and the external carotid artery were ligated, and a standardized silicon rubber-coated 6.0 nylon monofilament (6021; Doccol Corp., Redlands, CA) was inserted and advanced via the right internal carotid artery to occlude the origin of the right MCA. […] The intraluminal suture was left in situ during the complete occlusion time. Then animals were re-anesthetized, and the occluding monofilament was withdrawn to allow reperfusion. In animals undergoing a sham treatment, the exact same procedure was followed except that the monofilament was only inserted three quarters of the normal distance that is necessary to occlude the MCA, after which it was immediately withdrawn. Some animals were exclusively used for laser-Doppler flowmetry (Periflux 5000, Perimed, Kings Park, NY) to monitor regional cerebral blood flow (rCBF) in the MCA territory.
Wild type (WT) and […] mice were subjected to 1 h of tMCAO and 23 h of reperfusion after which mice and brains were analyzed. Mice were killed 24 hours after initiation of tMCAO. Brains were quickly removed and cut into 2-mm-thick coronal sections using a mouse brain slice matrix. The slices were stained with 2% 2,3,5-triphenyl-tetrazolium chloride (TTC; Sigma-Aldrich, St. Louis, MO) in PBS to visualize the infarctions. Sections were photographed with a digital Nikon D70 camera and infarct areas (white) were measured blindly using Image J software (National Institutes of Health). Brain infarct volumes were measured by planimetry (FIG. 9A). Compared to the wild-type controls, DNase-1^−/− mice developed larger brain infarctions (84.10±7.24 mm^3 versus 58.50±4.04 mm^3, p<0.05, FIG. 9A).
Neurological function was assessed, blinded for the mouse genotype 24 h, after initiation of tMCAO, using the modified Bederson score (Bederson et al., Stroke 1986 17:472-6). This test determines global neurological function according to the following scoring system: 0, no deficit; 1, forelimb flexion; 2, decreased resistance to lateral push; 3, unidirectional circling; 4, longitudinal spinning; 5, no movement. The grip test was performed as described (Moran et al., PNAS 1995 92:5341-5). A mouse was placed on a wooden bar (3 mm in diameter, 40 cm long) that is attached to two vertical supports 40 cm above a flat surface. When placing the mouse at a point midway between the supports, the experiment was rated according to the following system: 0, falls off; 1, hangs onto bar by two forepaws; 2, as for 1, but attempts to climb onto bar; 3, hangs onto bar by two forepaws plus one or both hindpaws; 4, hangs onto bar by all four paws plus tail wrapped around bar; 5, escape (where mouse was able to work its way to one of the supports). […] The turns in one versus the other direction were recorded from ten trials for each test. Turning movements that were not part of a rearing movement were not scored. […]

For assay [2], the system named is flow restriction-induced DVT in mice. Put plainly: IVC stenosis (flow restriction) model of deep vein thrombosis. An excerpt: Mice were anesthetized by isoflurane-oxygen mixture and placed in a supine position. After laparotomy, intestines were exteriorized and warm sterile saline was applied during the whole procedure to prevent drying. After gentle separation from aorta, IVC was ligated over a 30 G needle by a 7.0 polypropylene suture immediately below the renal veins (towards the tail) and then the needle was removed. The needle was placed outside the vessel so that piercing or any other injury to the IVC wall was completely avoided. This procedure allows for standardized flow restriction without endothelial injury. All visible side branches (usually 1 or 2) were also ligated. After surgery, peritoneum and skin were closed by monofilament absorbable suture and 6.0 silk, respectively. Mice were euthanized after 6 h or 48 h and thrombi developed in the IVC below the suture (towards the tail) were taken for analysis.
All mice were treated with DNaseI (Pulmozyme®) immediately after surgery and mice with 48 h IVC stenosis received 3 additional injections every 12 hours. The dose of every injection was 50 μg i.p. (50 μl of non-diluted Pulmozyme) and 10 μg i.v. (in 50 μl of sterile saline) in retro-orbital plexus. Control mice were injected with the same volume of DNase buffer (8.77 mg/ml sodium chloride and 0.15 mg/ml calcium chloride in sterile water for injections).
Flow restriction model. The murine model of DVT was performed as described. […] A suture was placed on the IVC just below the renal veins over a spacer (diameter of 0.26 mm) and then the spacer was removed. […] All visible IVC side branches were also sutured. Thereafter, peritoneum and skin were closed, mice were sacrificed after 1-48 h and thrombi formed in the IVC were harvested. Sham-operated mice were opened and IVC sutured similarly to the experimental mice, but the suture was removed immediately after ligation.
Histone infusion. A mixture of all histones isolated from calf thymus (Worthington, Lakewood, NJ, USA) was dissolved in sterile saline and infused intravenously in mice immediately before IVC stenosis application. The dose used (10 mg kg^−1) is known to produce a 25% decrease in platelet count 10 min after infusion. The infused solution of histone mix was essentially endotoxin-free (<0.025 EU mL^−1; measured using the endotoxin detection kit [Lonza, Walkersville, MD, USA] according to the manufacturer's instructions). Control mice received infusion of sterile saline. Mice were sacrificed 1 h after surgery and thrombus formation was examined.
DNase 1 infusion. DNase 1 (PULMOZYME®, Genentech, San Francisco, CA, USA) was diluted in sterile saline and injected immediately after surgery (50 μg intraperitoneally and 10 μg intravenously). In experiments with 48 h IVC stenosis, injections were repeated three more times after every 12 h. Control mice were injected with the PULMOZYME™ vehicle buffer (8.77 mg mL^−1 sodium chloride and 0.15 mg mL^−1 calcium chloride) diluted in sterile saline.

Assay [3] relates to TRALI in BALB/c mice. Put plainly: Two-event (LPS + anti-H-2Kd mAb) TRALI model. The following applies: i.v. administration.
The mark [4] stands for this setting: rhDNase-1 vs vehicle, 24 h, p<0.05.
[5] abbreviates: 6 h and 48 h IVC stenosis, vs vehicle.

B1: rhDNase-1: recombinant human DNase-1 (Dornase alpha, Pulmozyme, Genentech) (protein, UniProt P24855 23-282, looked up)
Deoxyribonuclease-1: LKIAAFNIQTFGETKMSNATLVSYIVQILSRYDIALVQEVRDSHLTAVGKLLDNLNQDAPDTYHYVVSEPLGRNSYKERYLFVYRPDQVSAVDSYYYDDGCEPCGNDTFNREPAIVRFFSRFTEVREFAIVPLHAAPGDAVAEIDALYDVYLDVQEKWGLEDVMLMGDFNAGCSYVRPSQWSSIRLWTSPTFQWLIPDSADTTATPTHCAYDRIVVAGMLLRGAVVPDSALPFNFQAAYGLSDQLAQAISDHYPVEVMLK
For the molecule B1, in assay [1] (1 h tMCAO, 23 h reperfusion, 50 μg i.p. 15 min before surgery and 12 h later, 10 μg i.v. 5 min before reperfusion, vehicle 81.45±9.08), the brain infarct volume came out at 50.67±8.74 mm^3. In addition, the “infarct size smaller than vehicle” value in assay [1] (1 h tMCAO, 23 h reperfusion, rhDNase-1 vs vehicle) is “approximately 40%”. Moreover, in assay [1] (setting [4]), the Bederson test score result is “significantly better”, the corner test result is recorded as “significantly better” and the grip test score entry is reported as “significantly better”. Further, the “protection from DVT (thrombus incidence)” value in assay [2] (6 h and 48 h IVC stenosis) was “protected mice from flow restriction-induced DVT”. In addition, in assay [2] (setting [5]), the thrombus length entry is given as “significantly reduced” and the thrombus weight result is on record as “significantly reduced”. The “protection from DVT (thrombus incidence)” value in assay [2] (6 h and 48 h IVC stenosis, listed as DNaseI) is on record as “greatly reduces the incidence of thrombosis”. Further, in assay [2] (48 h IVC stenosis, 50 μg i.p. and 10 μg i.v. every 12 h, 2 of 12, vehicle 5 of 8), the “mice that developed a thrombus” value amounted to 17%. Besides, the TRALI outcome in assay [3] is on record as “did not improve TRALI outcome”.
